Experimental data published in patent publication US20120165267A1.

Key:
[1] = target: DR4-selective phage clone 9 (human) (UniProt P50591); experiment: competition phage ELISA: phage clone Apo.DR4-9 at a fixed concentration on wells coated with DR4-IgG, competed by rising soluble DR4-IgG (axis in nM), bound phage detected with anti-M13 antibody-HRP, A450; IC50 from a 4-parameter fit, second value in the IC50 box beside the legend
[2] = target: DR4-selective phage clone 8 (human) (UniProt P50591); experiment: competition phage ELISA: phage clone Apo.DR4-8 at a fixed concentration on wells coated with DR4-IgG, competed by rising soluble DR4-IgG (axis in nM), bound phage detected with anti-M13 antibody-HRP, A450; IC50 from a 4-parameter fit, first value in the IC50 box beside the legend
[3] = target: DR4-selective phage clone 11 (human) (UniProt P50591); experiment: competition phage ELISA: phage clone Apo.DR4-11 at a fixed concentration on wells coated with DR4-IgG, competed by rising soluble DR4-IgG (axis in nM), bound phage detected with anti-M13 antibody-HRP, A450; IC50 from a 4-parameter fit, third value in the IC50 box beside the legend
[4] = target: wild-type (native sequence) Apo2L/TRAIL(96-281) displayed on phage (human) (UniProt P50591); experiment: competition phage ELISA: wild-type Apo2L/TRAIL phage (ApoWT) at a fixed concentration on wells coated with DR4-IgG, competed by rising soluble DR4-IgG (axis in nM), bound phage detected with anti-M13 antibody-HRP, A450; IC50 from a 4-parameter fit, fifth value in the IC50 box beside the legend
[5] = target: DR4-selective phage clone 13 (human) (UniProt P50591); experiment: competition phage ELISA: phage clone Apo.DR4-13 at a fixed concentration on wells coated with DR4-IgG, competed by rising soluble DR4-IgG (axis in nM), bound phage detected with anti-M13 antibody-HRP, A450; IC50 from a 4-parameter fit, fourth value in the IC50 box beside the legend

Chain of DR4-IgG (O00220 24-241 H141R/R209T limits assumed): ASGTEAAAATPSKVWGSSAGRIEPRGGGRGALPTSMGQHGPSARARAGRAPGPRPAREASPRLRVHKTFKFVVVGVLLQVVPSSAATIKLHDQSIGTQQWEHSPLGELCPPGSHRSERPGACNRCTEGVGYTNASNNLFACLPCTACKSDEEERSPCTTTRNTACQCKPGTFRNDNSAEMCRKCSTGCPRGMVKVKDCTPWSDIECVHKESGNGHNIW

Substance: DR4-IgG (from UniProt O00220 24-241) (Fc fusion)
- IC50 [1]: 1.1 nM
- IC50 [2]: 1.3 nM
- IC50 [3]: 4.2 nM
- IC50 [4]: 2.8 nM
- IC50 [5]: 6.7 nM
